Results from paper PMC10190621 (Advanced Science, 2023).

Target: T1, His-tagged KEAP1 (C-terminal amino acids 312-624, containing the Kelch domain) (human, UniProt Q14145 312-624)
T1 construct: plasmid by Tsingke Biotechnology; also called His-KEAP1; Kelch domain of KEAP1; source: E. coli BL21 (DE3), purified (Ni-NTA column, gel filtration)
Experiment: pull-down; His pulldown, competition: 10 µg His-KEAP1 on His immunomagnetic beads, mixed with NRF2 and 5 or 10 µg DDRGK1 protein at 4 °C overnight, washed three times, immunoblot
Conditions: both partners purified

T1 sequence (Q14145 312-624): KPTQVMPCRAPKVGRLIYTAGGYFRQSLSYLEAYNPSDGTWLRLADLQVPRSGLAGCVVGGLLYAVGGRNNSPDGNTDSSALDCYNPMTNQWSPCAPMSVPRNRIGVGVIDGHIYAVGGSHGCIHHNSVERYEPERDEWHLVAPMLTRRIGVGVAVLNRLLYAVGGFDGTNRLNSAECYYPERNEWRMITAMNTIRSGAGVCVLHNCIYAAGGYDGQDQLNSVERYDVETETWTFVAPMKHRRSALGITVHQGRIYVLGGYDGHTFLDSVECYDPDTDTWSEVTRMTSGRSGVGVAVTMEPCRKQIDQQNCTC

B1: GST-tagged NRF2 (N-terminal amino acids 1-84, containing domains interacting with KEAP1) (domain or fragment, human, UniProt Q16236 1-84, looked up)
chain: MMDLELPPPGLPSQQDMDLIDILWRQDIDLGVSREVFDFSQRRKEYELEKQKKLEKERQEQLQKEQEKAFFAQLQLDEETGEFL
notes: N-terminal domain (residues 1-84) of human NRF2; plasmid by Tsingke Biotechnology; also called GST-NRF2; NRF2 protein; source: E. coli BL21 (DE3), purified (GSH column, gel filtration)
B1: binds.
